Numbering of substitutions follows the chain as printed. Names and notes keep the numbering of the source.
B1: PRL-1 (phosphatase of regenerating liver 1) (enzyme)
chain: MARMNRPAPVEVTYKNMRFLITHNPTNATLNKFIEELKKYGVTTIVRVCEATYDTTLVEKEGIHVLDWPFDDGAPPSNQIVDDWLSLVKIKFREEPGCCIAVHCVAGLGRAPVLVALALIEGGMKYEDAVQFIRQKRRGAFNSKQLLYLEKYRPKMRLRFKDSNGHRNNCCIQ
notes: PRL-1, phosphatase of the regenerating liver; The methods give no source or construct for PRL-1
B2: CNNM4_(cNMP) (human CNNM4 cyclic nucleotide monophosphate binding-like domain, residues 545-730) (domain or fragment, UniProt Q6P4Q7 545-730, looked up)
chain: KISPQLLLAAHRFLATEVSQFSPSLISEKILLRLLKYPDVIQELKFDEHNKYYARHYLYTRNKPADYFILILQGKVEVEAGKENMKFETGAFSYYGTMALTSVPSDRSPAHPTPLSRSASLSYPDRTDVSTAATLAGSSNQFGSSVLGQYISDFSVRALVDLQYIKITRQQYQNGLLASRMENSPQ
modifications: SeMet labeled in the crystals
notes: CNNM4, human, UniProtKB/Swiss-Prot Q6P4Q7, residues 545-730 (cNMP domain only, without the C-terminal tail); Cloned into pHIS-Parallel2; In solution a concentration dependent mixture of monomers and dimers; also called hCNNM4_(cNMP); CNNM4_(545-730); source: E. coli BL21 (DE3), purified (HisTrap, TEV, second Ni-NTA, Superdex 75); SeMet derivative from E. coli B834 (DE3) for the crystals; not …
B3: CNNM4_(BAT-cNMP-Ctail) (complete intracellular region of human CNNM4, residues 356-775) (domain or fragment, UniProt Q6P4Q7 356-775, looked up)
chain: KEELNMIQGALELRTKTVEDIMTQLQDCFMIRSDAILDFNTMSEIMESGYTRIPVFEDEQSNIVDILYVKDLAFVDPDDCTPLKTITRFYNHPVHFVFHDTKLDAMLEEFKKGKSHLAIVQKVNNEGEGDPFYEVLGLVTLEDVIEEIIKSEILDESDMYTDNRSRKRVSEKNKRDFSAFKDADNELKVKISPQLLLAAHRFLATEVSQFSPSLISEKILLRLLKYPDVIQELKFDEHNKYYARHYLYTRNKPADYFILILQGKVEVEAGKENMKFETGAFSYYGTMALTSVPSDRSPAHPTPLSRSASLSYPDRTDVSTAATLAGSSNQFGSSVLGQYISDFSVRALVDLQYIKITRQQYQNGLLASRMENSPQFPIDGCTTHMENLAEKSELPVVDETTTLLNERNSLLHKASHENAI
notes: CNNM4, human, UniProtKB/Swiss-Prot Q6P4Q7, residues 356-775 (Bateman module, linker, cNMP domain and C-terminal tail); Cloned into pHIS-Parallel2; also called hCNNM4_(BAT-cNMP-Ctail); full intracellular region; source: E. coli BL21 (DE3), purified (HisTrap, TEV, second Ni-NTA, Superdex 75); not shown: His6, N-terminal, cleaved
B4: CNNM4_(BAT-cNMP-Ctail) F631A mutant (domain or fragment, human, UniProt Q6P4Q7 356-775, looked up)
chain: B3 chain with F276A
notes: CNNM4, human, UniProtKB/Swiss-Prot Q6P4Q7, residues 356-775 with F631A; also called F631A mutant of CNNM4_(BAT-cNMP-Ctail)

Legend:
[1] = target: B3; assay: SEC-SAXS; KW-403 size-exclusion column online, 20 C, 20 mM HEPES pH 7.4, 200 mM NaCl, 1 mM DTT; samples about 5 mg/mL; CNNM4_(BAT-cNMP-Ctail) and its complex with PRL-1 each without and with 5 mM MgATP; oligomeric state from Porod volume, Rg, Dmax; conditions: both partners purified
[2] = target: the molecule itself; assay: SEC-MALS; Superdex 200 10/300 GL, 25 C, 20 mM HEPES pH 7.4, 200 mM NaCl, 1 mM TCEP; 100 uL injected at 1 and 10 g/L; monomer to dimer

Binder | stoichiometry N [2] | also measured
B1 | – | stoichiometry N [1]: 2 PRL-1 molecules per CNNM4_(BAT-cNMP-Ctail) dimer
B2 | 2 | –
B3 | 2 | –
B4 | – | binding result [2]: binds
